Assay results as given in patent publication US12338277.

Key:
Assay in all cases: cell-based or functional assay
[1] = target: HIV-1 Env of pseudovirus ZM109F.PB4 (HIV-1)
[2] = target: HIV-1 envelope glycoprotein of pseudovirus X1254_c3 (clade G) (HIV-1)
[3] = target: HIV-1 Env of pseudovirus Q259.d2.17 (HIV-1)
[4] = target: HIV-1 envelope glycoprotein of pseudovirus Q842.d12 (clade A) (HIV-1)
[5] = target: HIV-1 Env of pseudovirus BJOX009000.02.4 (HIV-1)
[6] = target: HIV-1 envelope glycoprotein of pseudovirus 1054_07_TC4_1499 (clade B (T/F)) (HIV-1)
[7] = target: HIV-1 envelope of pseudovirus Q23.17 (HIV-1)
[8] = target: HIV-1 Env of pseudovirus 1054_07_TC4_1499 (HIV-1)
[9] = target: HIV-1 envelope of pseudovirus ZM233M.PB6 (HIV-1)
[10] = target: HIV-1 envelope glycoprotein of pseudovirus WITO4160.33 (clade B) (HIV-1)
[11] = target: HIV-1 envelope glycoprotein of pseudovirus ZM135M.PL10a (clade C) (HIV-1)
[12] = target: HIV-1 Env of pseudovirus HIV-0013095-2.11 (HIV-1)
[13] = target: HIV-1 envelope glycoprotein of pseudovirus TRJO4551.58 (clade B) (HIV-1)
[14] = target: HIV-1 envelope glycoprotein of pseudovirus BJOX009000.02.4 (clade CRF01_AE) (HIV-1)
[15] = target: HIV-1 envelope glycoprotein of pseudovirus CNE19 (clade BC) (HIV-1)
[16] = target: HIV-1 envelope glycoprotein of pseudovirus 928-28 (clade CRF02_AG) (HIV-1)
[17] = target: HIV-1 envelope glycoprotein of pseudovirus 62357_14_D3_4589 (clade B (T/F)) (HIV-1)
[18] = target: HIV-1 Env of pseudovirus 6041.v3.c23 (HIV-1)
[19] = target: HIV-1 envelope glycoprotein of pseudovirus T251-18 (clade CRF02_AG) (HIV-1)
[20] = target: HIV-1 envelope glycoprotein of pseudovirus 263-8 (clade CRF02_AG) (HIV-1)
[21] = target: HIV-1 Env of pseudovirus BJOX015000.11.5 (HIV-1)
[22] = target: HIV-1 envelope glycoprotein of pseudovirus HIV-16055-2.3 (clade C) (HIV-1)
[23] = target: HIV-1 envelope glycoprotein of pseudovirus Ce1172_H1 (clade C (T/F)) (HIV-1)
[24] = target: HIV-1 envelope of pseudovirus R1166.c01 (HIV-1)
[25] = target: HIV-1 envelope of pseudovirus REJO4541.67 (HIV-1)
[26] = target: HIV-1 envelope of pseudovirus ZM135M.PL10a (HIV-1)
[27] = target: HIV-1 envelope glycoprotein of pseudovirus Ce1086_B2 (clade C (T/F)) (HIV-1)
[28] = target: HIV-1 envelope glycoprotein of pseudovirus YU.2 (clade B) (HIV-1) (UniProt P35961)
Chain of HIV-1 envelope glycoprotein of pseudovirus YU.2 (clade B) (HIV-1) (P35961 32-843): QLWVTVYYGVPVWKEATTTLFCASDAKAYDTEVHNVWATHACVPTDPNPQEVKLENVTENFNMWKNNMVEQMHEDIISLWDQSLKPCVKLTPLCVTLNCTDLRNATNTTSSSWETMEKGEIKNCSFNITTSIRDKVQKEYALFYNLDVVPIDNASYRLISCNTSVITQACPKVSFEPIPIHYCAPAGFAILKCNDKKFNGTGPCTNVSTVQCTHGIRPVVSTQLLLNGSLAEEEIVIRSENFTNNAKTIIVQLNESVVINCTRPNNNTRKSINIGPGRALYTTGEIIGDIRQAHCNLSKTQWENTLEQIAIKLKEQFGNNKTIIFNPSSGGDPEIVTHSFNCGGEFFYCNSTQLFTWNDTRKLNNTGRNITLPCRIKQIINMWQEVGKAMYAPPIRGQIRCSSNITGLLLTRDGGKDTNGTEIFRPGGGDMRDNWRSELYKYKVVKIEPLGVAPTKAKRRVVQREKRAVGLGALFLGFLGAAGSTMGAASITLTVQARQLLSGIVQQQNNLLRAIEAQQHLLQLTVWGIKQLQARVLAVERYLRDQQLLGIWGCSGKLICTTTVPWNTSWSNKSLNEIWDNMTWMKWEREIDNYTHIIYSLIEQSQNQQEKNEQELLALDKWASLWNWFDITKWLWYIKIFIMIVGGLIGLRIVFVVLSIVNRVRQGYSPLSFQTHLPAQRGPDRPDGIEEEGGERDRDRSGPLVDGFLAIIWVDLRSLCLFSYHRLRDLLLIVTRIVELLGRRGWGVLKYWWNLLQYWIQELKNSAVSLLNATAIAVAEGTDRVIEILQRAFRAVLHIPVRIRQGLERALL

[29] = target: HIV-1 envelope glycoprotein of pseudovirus CNE17 (clade BC) (HIV-1)
[30] = target: HIV-1 Env of pseudovirus PVO.4 (HIV-1)
[31] = target: HIV-1 Env of pseudovirus 62357_14_03_4589 (HIV-1)
[32] = target: HIV-1 envelope glycoprotein of pseudovirus 211-9 (clade CRF02_AG) (HIV-1)
[33] = target: HIV-1 envelope glycoprotein of pseudovirus RHPA4259.7 (clade B) (HIV-1)
[34] = target: HIV-1 Env of pseudovirus YU-2 (HIV-1) (UniProt P35961)
Chain of HIV-1 Env of pseudovirus YU-2 (HIV-1) (P35961 32-843 limits assumed): as the sequence (P35961 32-843) above

[35] = target: HIV-1 Env of pseudovirus 6952.v1.c20 (HIV-1)
[36] = target: HIV-1 envelope glycoprotein of pseudovirus CAP45.2.00.G3 (clade C) (HIV-1)
[37] = target: HIV-1 envelope glycoprotein of pseudovirus QH0692.42 (clade B) (HIV-1)
[38] = target: HIV-1 Env of pseudovirus 0260.v5.c36 (HIV-1)
[39] = target: HIV-1 Env of pseudovirus X1193_c1 (HIV-1)
[40] = target: HIV-1 envelope glycoprotein of pseudovirus CNE30 (clade BC) (HIV-1)
[41] = target: HIV-1 Env of pseudovirus T278-50 (HIV-1)

## PGT121 (antibody)
[1]
  IC80 (TZM-bl neutralization): > 50 µg/mL
[2]
  IC50 in the TZM-bl neutralization assay: 0.199 µg/mL
[3]
  IC80 (TZM-bl neutralization): > 50 µg/mL
[4]
  IC50 in the TZM-bl neutralization assay: 0.074 µg/mL
[5]
  IC80 (TZM-bl neutralization): 37.3 µg/mL
[6]
  IC50 in the TZM-bl neutralization assay: 0.696 µg/mL
[7]
  IC50 (TZM-bl neutralization): 0.01 µg/mL
[8]
  IC80 (TZM-bl neutralization): 0.696 µg/mL
[9]
  IC50 (TZM-bl neutralization): 1.45 µg/mL
[10]
  IC50 in the TZM-bl neutralization assay: 6.01 µg/mL
[11]
  IC50 in the TZM-bl neutralization assay: 5.88 µg/mL
[12]
  IC80 (TZM-bl neutralization): > 50 µg/mL
[13]
  IC50 in the TZM-bl neutralization assay: 35.3 µg/mL
[14]
  IC50 in the TZM-bl neutralization assay: 37.3 µg/mL
[15]
  IC50 in the TZM-bl neutralization assay: 0.189 µg/mL
[16]
  IC50 in the TZM-bl neutralization assay: > 50 µg/mL
[17]
  IC50 in the TZM-bl neutralization assay: 45.6 µg/mL
[18]
  IC80 (TZM-bl neutralization): > 50 µg/mL
[19]
  IC50 in the TZM-bl neutralization assay: > 50 µg/mL
[20]
  IC50 in the TZM-bl neutralization assay: 24.6 µg/mL
[21]
  IC80 (TZM-bl neutralization): > 50 µg/mL
[22]
  IC50 in the TZM-bl neutralization assay: 4.29 µg/mL
[23]
  IC50 in the TZM-bl neutralization assay: 0.088 µg/mL
[24]
  IC50 (TZM-bl neutralization): > 50 µg/mL
[25]
  IC50 (TZM-bl neutralization): 3.61 µg/mL
[26]
  IC50 (TZM-bl neutralization): 0.576 µg/mL
[27]
  IC50 in the TZM-bl neutralization assay: 0.006 µg/mL
[28]
  IC50 in the TZM-bl neutralization assay: 0.356 µg/mL
[29]
  IC50 in the TZM-bl neutralization assay: > 50 µg/mL
[30]
  IC80 (TZM-bl neutralization): 0.945 µg/mL
[31]
  IC80 (TZM-bl neutralization): 45.6 µg/mL
[32]
  IC50 in the TZM-bl neutralization assay: 8.84 µg/mL
[33]
  IC50 in the TZM-bl neutralization assay: 0.054 µg/mL
[34]
  IC80 (TZM-bl neutralization): 0.356 µg/mL
[35]
  IC80 (TZM-bl neutralization): 0.605 µg/mL
[36]
  IC50 in the TZM-bl neutralization assay: 6.54 µg/mL
[37]
  IC50 in the TZM-bl neutralization assay: 8.54 µg/mL
[38]
  IC80 (TZM-bl neutralization): 0.152 µg/mL
[39]
  IC80 (TZM-bl neutralization): 0.202 µg/mL
[40]
  IC50 in the TZM-bl neutralization assay: 0.559 µg/mL
[41]
  IC80 (TZM-bl neutralization): > 50 µg/mL
